# Laboratory results taken from patent US20260117274A1, “ORTHOGONALLY CROSSLINKED PROTEINS, METHODS OF MAKING, AND USES THEREOF” (The Research Foundation for The State University of New York, priority 2022, published 2026).
# B1: NSa1(+10)-A13CATK-1: +10 charged monobody NSa1 encoding CATK-1 at Ala-13, crosslinked to Tyr-92; SEQ ID NO: 50 (protein)
# chain: MGSSHHHHHHSSGTENLYFQGVSSKPTKLRVVRXTPTSLKIKWDAPAKTVDYYVITYGETGRGGYAWQRFEVPGSKRTATIKGLKPGVDYTITVYAGYKGYPTYYSSPISINYRT
# modifications: CATK-1 at Ala13 crosslinked to Tyr92; VARIANT 34 X is 1/2-carboxy-4-aryltriazole lysine or Ne-(tert-butoxycarbonyl) lysine
# Tests used:
# HeLa cells = experiment: Flow cytometry uptake of AF488-labeled NSa1(+10) proteins in HeLa cells; assay type: cell-based
# Method: (§1) To assess cellular uptake of the supercharged NSa1 proteins, we first removed the N-terminal His-tag after TEV cleavage to obtain two intact NSa1(+10) mutants encoding either BocK or CATK-1. We then reacted the mutants with Alexa Fluor 488-NHS modest labeling yield of 20-23% (FIG. 22). We then carried out a flow cytometry assay to quantify the uptake efficiency of the NSa1(+10) mutants. In brief, HeLa cells were treated with 100 or 500 nM of NSa1(+10) proteins at 37° C. for 4 hours. After washing cells three times with PBS containing 20 U/mL heparin to remove the surface-bound proteins, cells were collected and analyzed by flow cytometry. We observed significant monobody uptake when protein concentrations reached 500 nM. […] Since the kinetically stable protein folds show enhanced proteolytic resistance due to their rigid conformations with limited local openings, we assessed the effect of orthogonal crosslinking on proteolytic stability of the monobody. Thus, we incubated the CATK-1-crosslinked NSa1(+10) with cathepsin B ¾ an enzyme responsible for the degradation of protein cargoes in the endosomes ¾ and monitored monobody stability by mass spectrometry.
# Fluorescent labeling of NSa1 and flow cytometry. After TEV-cleavage and further cation exchange chromatography, the purified NSa1 proteins were buffer exchanged into the basic buffer (100 mM Pi, 450 mM NaCl, pH 8.3), and then incubated with AF488-NHS (Lumiprobe) (2-fold molar, optimized to afford non-labeled and mono-labeled protein as major species) at 4° C. with gentle shaking in darkness overnight. Then, thorough dialysis was employed to remove excess dye and protein concentrations were determined by Nanodrop (eNSa1=28880 M^−1 cm^−1, eNSa1-plus10=27390 M^−1 cm^−1; CF280=0.11; Aprotein=A280−A493*CF280).
# HeLa cells were seeded in a 48-well plate and grown in DMEM supplemented with 10% FBS and 10 μg/mL Gentamycin (Gibco) and 2 μg/mL Plasmocin at 37° C., 5% CO2 until ˜80% confluency. Cells were washed twice with pre-warmed PBS before switching to serum-free DMEM with Alexa-488 labeled protein. Cells were incubated at 37° C. for 4 hours. The cells were washed three times with PBS (including 20 U/mL heparin), trypsinized, and collected with 1.5 mL tubes. After brief centrifugation (400 g, 5 min) at room temperature, cells were collected and resuspended in PBS for flow cytometry analysis.
# Cathepsin B = molecular target: T1, Cathepsin B (Homo sapiens, UniProt P07858); experiment: NSa1 proteolytical stability assay (QTOF-LC/MS); assay type: in vitro ADME
# T1 construct: purchased Novus Biologicals
# Method: as §1
# NSa1 proteolytical stability assay. In a 1.5-mL microcentrifuge tube, TEV-cleaved, purified NSa1 (1.5 μM in 50 mM phosphate, 500 mM NaCl, pH 7.0) was incubated with Cathepsin B (Novus Biologicals; 0.065 μM) at 37° C. […]
molecule,measurement,setting,value
B1,higher mean fluorescence intensity than NSa1(+10)-A13BocK treated cells,HeLa cells; 500 nM,40%
same,percentage of fluorescent cells,"HeLa cells; 500 nM, 4 hours",14.8%
same,MFI(R-1) Trial 1,"HeLa cells; Protein 500 nM, 37°C, 4 hours, Trial 1",9561.61
same,MFI(R-1) Trial 2,"HeLa cells; Protein 500 nM, 37°C, 4 hours, Trial 2",9020.17
same,MFI(R-1) Trial 3,"HeLa cells; Protein 500 nM, 37°C, 4 hours, Trial 3",9337.41
same,half-life relative to non-crosslinked NSa1(+10)-A13BocK,"Cathepsin B; Cathepsin B, 37°C",three times longer
same,half-life,Cathepsin B; NSa1 1.5 μM with Cathepsin B 0.065 μM at 37°C,2.1 h
